Data on 2 molecules can be found in patent US10429300B2, “Surface plasmon resonance approach to monitor protein-ligand interactions” (The Johns Hopkins University, priority 2015, dated 2019).

For assay [1], the target named is rNav1.2a/Kv2.1 VSD IV paddle chimera. The assay can be described thus: Two-electrode voltage-clamp, rNav1.2a/Kv2.1 VSD IV paddle chimera in Xenopus oocytes. The class given is cell-based, rat. The source says: The DNA sequence of rat (r)Nav1.2a (provided by A. Goldin, University of California, Irvine, Irvine, Calif.), rKv2.1 (provided by K. J. Swartz, National Institutes of Health), and the rNav1.2a/Kv2.1 VSD II or IV chimera was confirmed by automated DNA sequencing, and cRNA was synthesized using T7 polymerase (mMessage mMachine™ kit; Life Technologies) after linearizing the DNA with appropriate restriction enzymes. Channels were expressed in Xenopus oocytes (obtained from Xenopus 1) and studied after a 1-d incubation after cRNA injection (incubated at 17° C. in 96 mM NaCl, 2 mM KCl, 5 mM HEPES, 1 mM MgCl2, 1.8 mM CaCl2, and 50 μg/ml gentamycin, pH 7.6 with NaOH) using two-electrode voltage-clamp recording techniques (OC-725C; Warner Instruments) with a 150-μl recording chamber. Data were filtered at 4 kHz and digitized at 20 kHz using pClamp™ 10 software (Molecular Devices). Microelectrode resistances were 0.5-1.5 MΩ when filled with 3 M KCl. For Kv chimera channel experiments, the external recording solution contained (mM): 50 KCl, 50 NaCl, 5 HEPES, 1 MgCl2, and 0.3 CaCl2, pH 7.6 with NaOH. For rNav1.2a experiments, the external recording solution contained (mM): 100 NaCl, 5 HEPES, 1 MgCl2, and 1.8 CaCl2, pH 7.6 with NaOH. All experiments were performed at ˜22° C. Leak and background conductances, identified by blocking the channel with agitoxin-2 (provided by K. J. Swartz), have been subtracted for all of the Kv channel currents shown. […] Voltage-activation relationships were obtained by measuring tail currents for Kv channels or steady-state currents and calculating conductance for Nav channels, and a single Boltzmann function was fitted to the data according to I/Imax=[1c+cexp(−zF(Vc−cV1/2)/RT)]^−1, where I/Imax is the normalized tail-current amplitude, z is the equivalent charge, V1/2 is the half-activation voltage, F is Faraday's constant, R is the gas constant, and T is temperature in kelvin. For all channels, voltage-activation relationships were recorded in the absence and presence of toxin. The ratio of currents (I/I0) recorded in the presence (I) and absence (I0) of toxin was calculated for voltages typically ranging from −140 to 10 cmV, depending on the construct. […] The apparent equilibrium dissociation constant (apparent KD) for Kv channels was calculated according to KD=((1/(1c−cFu^1/4))c−c1)[toxin], assuming four independent toxin-binding sites per channel. Results are given as mean±SEM unless noted otherwise. Offline data analysis was performed using Clampfit 10™ (Molecular Devices), Origin 8.0™ (OriginLab), and Excel™ (Microsoft). All chemicals were obtained from Sigma-Aldrich.
rNav1.2a/Kv2.1 VSD IV paddle chimera, sequence (P04775 1605-1636 limits assumed, stated change not applied): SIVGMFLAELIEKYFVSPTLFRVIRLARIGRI
Representative sodium currents were elicited by a 50-ms depolarization to a suitable membrane voltage (−20 to −15 mV) before (black) and after toxin addition (green) from a holding voltage of −90 mV. […] For each toxin, K^+ currents were elicited by a 300-ms depolarization to 0 mV from a holding voltage of −90 mV (tail voltage was −60 mV). […] For each toxin, K^+ currents (top) were elicited by a 300-ms depolarization near the foot of the voltage-activation curve (bottom) from a holding voltage of −90 mV.
(In general: Two-electrode voltage clamp holds a large cell at a set potential and records current.)

For assay [2], the target named is T1, rNav1.2a VSD IV paddle peptide (R1629A/L1630A, SEQ ID NO: 4) (Rattus norvegicus, UniProt P04775, L1630A/R1629A).
T1 construct: purchased ProteoGenix; host or cells: chemical synthesis (Fmoc solid phase)
T1 sequence (P04775 1605-1636 R1629A/L1630A): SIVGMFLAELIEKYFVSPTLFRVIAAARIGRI
Nature of the assay: SPR on immobilized rNav1.2a VSD IV paddle peptide. The class given is binding.

The target of assay [3] is rNav1.2a. Conditions: cited from earlier work.
[4] abbreviates: heterogeneous ligand model, 15-2,000 nM toxin, 50 fmol peptide, n=3, mean±SD.
The mark [5] stands for this setting: heterogeneous ligand model, 50 fmol peptide.
[6] abbreviates: heterogeneous ligand model, 50 fmol peptide, n=3, mean±SD.

Entries after “also recorded” stand apart in the source; their conditions may differ.

B1: AaHII: Nav channel-selective α-scorpion toxin from Androctonus australis hector; model toxin (protein)
chain: VKDGYIVDDVNCTYFCGRNAYCNEECTKLKGESGYCQWASPYGNACYCYKLPDHVRTKGPGRCH
B1: the Kd in assay [1] (100 nM AaHII, n=3, mean±SEM, read-out: apparent KD) amounted to 1010 nM. The “K+ current inhibition of VSD IV chimera” value in assay [1] (100 nM toxin) is recorded as “influenced less; also recorded: influenced to a much lesser extent”. Also, in assay [2] (setting [4]), the “association rate ka1” value turned out to be 2330 ± 910 M⁻¹ s⁻¹, the “association rate ka2” value amounted to 38200 ± 4700 M⁻¹ s⁻¹, the “dissociation rate kd1” value amounted to 0.000979 ± 0.00014 s⁻¹ and the “dissociation rate kd2” value was determined as 0.0281 ± 0.0058 s⁻¹. In assay [2] (setting [5]), the RUmax1 is reported as 135 and the RUmax2 is listed as 23. Further, in assay [2] (setting [6]), the “high affinity KD1 (kd1/ka1)” value was determined as 479 ± 241 nM and the “lower affinity KD2 (kd2/ka2)” value was 747 ± 203 nM. Further, the Kd in assay [3] (WT rNav1.2a, read-out: affinity of the toxin for WT rNav1.2a) was ~5 nM.

B2: CssIV: β-scorpion toxin from Centruroides suffusus suffusus (protein)
chain: KEGYLVNSYTGCKFECFKLGDNDYCLRECRQQYGKGSGGYCYAFGCWCTHLYEQAVVWPLPNKTCN
B2: in assay [1] (1 μM toxin), the “effect on VSD IV chimera voltage-activation relationship” value is given as “does not influence”. In addition, the “SPR binding to VSD IV paddle peptide” value in assay [2] (100 nM toxin, 500 fmol peptide) is given as “no RUs could be detected”. The “effect on WT rNav1.2a gating” value in assay [3] (100 nM toxin) is reported as “clearly influences WT rNav1.2a gating”.
